Series [1] deals with the molecule itself. Nature of the series: band on SDS-PAGE of the pull-down eluate, identified by Western blot; band seen in the lanes where GST-Vt and PIP2 are present. For orientation: Immunoblotting shows a protein as a band on a membrane.
The target in series [2] is T1, metavinculin-ΔH1 (lacking residues 895–915) (human, UniProt P18206 1-1134, lacking residues 895–915).
T1 construct: human metavinculin, full length (1-1,134) lacking residues 895-915 (α-helix H1): 1-894 joined to 916-1,134; also called MV-ΔH1; source: E. coli BL21-DE3, purified (as full-length metavinculin); not shown: His8, N-terminal, kept
T1 sequence (looked up): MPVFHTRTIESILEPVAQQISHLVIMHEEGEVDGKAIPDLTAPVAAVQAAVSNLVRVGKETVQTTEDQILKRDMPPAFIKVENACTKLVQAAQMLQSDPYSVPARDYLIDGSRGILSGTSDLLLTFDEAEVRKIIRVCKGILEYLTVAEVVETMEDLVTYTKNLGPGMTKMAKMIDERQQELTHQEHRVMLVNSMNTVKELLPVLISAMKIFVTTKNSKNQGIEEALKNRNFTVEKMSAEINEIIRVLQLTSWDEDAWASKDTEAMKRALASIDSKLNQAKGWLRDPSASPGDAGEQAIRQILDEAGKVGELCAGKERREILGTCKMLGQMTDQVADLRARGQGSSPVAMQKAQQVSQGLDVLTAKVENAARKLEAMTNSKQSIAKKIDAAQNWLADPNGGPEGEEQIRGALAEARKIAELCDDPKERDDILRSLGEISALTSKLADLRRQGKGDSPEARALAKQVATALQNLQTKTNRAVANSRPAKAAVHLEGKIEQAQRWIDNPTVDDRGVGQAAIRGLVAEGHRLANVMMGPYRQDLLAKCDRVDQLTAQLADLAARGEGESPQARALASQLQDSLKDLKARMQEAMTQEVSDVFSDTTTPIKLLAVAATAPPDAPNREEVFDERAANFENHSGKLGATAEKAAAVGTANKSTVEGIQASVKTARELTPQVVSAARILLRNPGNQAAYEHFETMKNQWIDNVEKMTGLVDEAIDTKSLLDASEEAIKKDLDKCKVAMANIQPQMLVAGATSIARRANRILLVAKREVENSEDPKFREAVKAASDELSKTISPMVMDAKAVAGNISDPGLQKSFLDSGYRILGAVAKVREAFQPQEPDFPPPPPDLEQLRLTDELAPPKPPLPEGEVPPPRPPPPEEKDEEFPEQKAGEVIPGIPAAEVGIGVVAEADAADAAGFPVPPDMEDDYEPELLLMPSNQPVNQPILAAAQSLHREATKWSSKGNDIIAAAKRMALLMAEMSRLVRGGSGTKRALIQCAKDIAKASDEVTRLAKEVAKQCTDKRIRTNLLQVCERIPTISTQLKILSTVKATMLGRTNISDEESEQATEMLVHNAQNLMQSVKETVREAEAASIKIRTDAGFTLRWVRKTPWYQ
Nature of the series: pull-down; GST-Vt (0.5 µM) on GST-Sepharose beads, with or without pre-incubation with 5 µM PIP2; 15 µM His8-tagged metavinculin or deletion mutant pre-activated with talin-VBS3, 1 hr 37°C; 20 mM Tris-HCl pH 8, 150 mM NaCl; eluted with glutathione, SDS-PAGE, Western blot. As to conditions: both partners purified.

For series [3], the target named is T2, metavinculin-ΔH1ΔH1′ (lacking residues 895–915 and 963–983) (human, UniProt P18206 1-1134, lacking residues 895–915 | lacking residues 963–983).
T2 construct: human metavinculin, full length (1-1,134) lacking residues 895-915 (H1) and 963-983 (H1′); source: E. coli BL21-DE3, purified (as full-length metavinculin); not shown: His8, N-terminal, kept
T2 sequence (looked up): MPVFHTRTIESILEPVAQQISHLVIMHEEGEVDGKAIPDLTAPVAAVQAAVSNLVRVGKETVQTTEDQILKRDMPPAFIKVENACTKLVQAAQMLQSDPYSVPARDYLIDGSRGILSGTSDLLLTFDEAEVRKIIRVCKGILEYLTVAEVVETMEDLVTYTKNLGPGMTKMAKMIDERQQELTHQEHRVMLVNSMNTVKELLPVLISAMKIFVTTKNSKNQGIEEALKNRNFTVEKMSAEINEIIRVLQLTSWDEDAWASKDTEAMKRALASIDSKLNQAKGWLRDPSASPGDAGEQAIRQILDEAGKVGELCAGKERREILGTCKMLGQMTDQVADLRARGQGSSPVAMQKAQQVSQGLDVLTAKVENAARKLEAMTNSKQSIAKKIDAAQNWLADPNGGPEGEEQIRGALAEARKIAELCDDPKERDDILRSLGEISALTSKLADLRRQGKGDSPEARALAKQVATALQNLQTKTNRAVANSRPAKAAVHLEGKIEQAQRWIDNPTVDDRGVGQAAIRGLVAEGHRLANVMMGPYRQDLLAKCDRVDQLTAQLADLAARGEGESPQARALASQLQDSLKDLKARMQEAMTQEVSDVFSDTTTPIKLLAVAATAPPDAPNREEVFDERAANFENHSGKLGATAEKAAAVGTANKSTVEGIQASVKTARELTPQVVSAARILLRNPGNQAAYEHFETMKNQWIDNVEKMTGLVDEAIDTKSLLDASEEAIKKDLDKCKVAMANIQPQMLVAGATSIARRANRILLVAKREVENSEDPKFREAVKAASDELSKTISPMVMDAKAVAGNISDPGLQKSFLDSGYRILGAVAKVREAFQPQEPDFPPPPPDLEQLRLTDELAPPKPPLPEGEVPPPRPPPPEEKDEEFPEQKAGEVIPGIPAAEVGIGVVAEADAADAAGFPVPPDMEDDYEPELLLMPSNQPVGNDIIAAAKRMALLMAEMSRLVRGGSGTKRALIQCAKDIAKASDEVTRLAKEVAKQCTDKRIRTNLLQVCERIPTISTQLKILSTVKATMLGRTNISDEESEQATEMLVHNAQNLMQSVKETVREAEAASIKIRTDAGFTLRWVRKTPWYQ
Described as above. The settings on record: both partners purified.

B1: GST tagged vinculin tail domain (GST-Vt; residues 879–1,066) (domain or fragment, human, UniProt P18206-2 879-1066, looked up)
chain: EEKDEEFPEQKAGEVINQPMMMAARQLHDEARKWSSKGNDIIAAAKRMALLMAEMSRLVRGGSGTKRALIQCAKDIAKASDEVTRLAKEVAKQCTDKRIRTNLLQVCERIPTISTQLKILSTVKATMLGRTNISDEESEQATEMLVHNAQNLMQSVKETVREAEAASIKIRTDAGFTLRWVRKTPWYQ
notes: human vinculin tail domain, residues 879-1,066 of vinculin (1,066-residue isoform), cloned in pGEX-4T-1; source: E. coli BL21-DE3, purified (GSTrap FF, Superdex 75)
As usually defined, the stoichiometry N is the number of molecules, sites or subunits per partner or assembly. In the case of B1, the “stoichiometry N” value in series [1] was found to be 2. Also, the binding result in series [2] and in series [3] was “binds” in each case.

These data come from PMC2873289, “A Helix Replacement Mechanism Directs Metavinculin Functions” (PLoS ONE, 2010).
